For orientation: stoichiometry N means the number of molecules, sites or subunits per partner or assembly.

The data set “crystal structure” deals with the molecule itself. As to the kind of experiment: crystal structure.
Data set [1] deals with the molecule itself.

Numbering of substitutions follows the chain as printed. Read-outs that look alike come from different tables or passages of the source.

B1: rhesus rotavirus (RRV, serotype G3) VP7 trimer, recombinant (natural protein, UniProt P12476 51-326, looked up)
chain: QNYGINLPITGSMDTAYANSTQEETFLTSTLCLYYPTEAATEINDNSWKDTLSQLFLTKGWPTGSVYFKEYTDIASFSVDPQLYCDYNVVLMKYDATLQLDMSELADLILNEWLCNPMDITLYYYQQTDEANKWISMGSSCTIKVCPLNTQTLGIGCLTTDTATFEEVATAEKLVITDVVDGVNHKLDVTTATCTIRNCKKLGPRENVAVIQVGGSDVLDITADPTTAPQTERMMRINWKKWWQVFYTVVDYVNQIIQAMSKRSRSLNSAAFYYRI
modifications: N-linked glycan at Asn69
Consider B1, for which the “stoichiometry N” value in “crystal structure” was 3.

B2: disulfide-linked variant of the VP7 trimer (cysteines substituted for Thr276 and Gln305) (natural protein, rhesus rotavirus (RRV, serotype G3), UniProt P12476 51-326, looked up)
chain: B1 chain with T226C, Q255C
modifications: intersubunit disulfide between the cysteines at 276 and 305
Take B2: in data set [1], the “stoichiometry N” value is 3.

For the origin of these results see publication PMC2995306 (Science (New York, N.Y.), 2009).
